Literature values as cited in paper doi:10.64898/2025.12.23.696170.
pKi: −log10 of the molar value.

What was measured:
ATR2 (Homo sapiens) = ATR2 (Homo sapiens) (UniProt P50052)
ATR1 (Homo sapiens) = ATR1 (Homo sapiens) (UniProt P30556)
UniProt P30556, sequence (P30556 whole entry): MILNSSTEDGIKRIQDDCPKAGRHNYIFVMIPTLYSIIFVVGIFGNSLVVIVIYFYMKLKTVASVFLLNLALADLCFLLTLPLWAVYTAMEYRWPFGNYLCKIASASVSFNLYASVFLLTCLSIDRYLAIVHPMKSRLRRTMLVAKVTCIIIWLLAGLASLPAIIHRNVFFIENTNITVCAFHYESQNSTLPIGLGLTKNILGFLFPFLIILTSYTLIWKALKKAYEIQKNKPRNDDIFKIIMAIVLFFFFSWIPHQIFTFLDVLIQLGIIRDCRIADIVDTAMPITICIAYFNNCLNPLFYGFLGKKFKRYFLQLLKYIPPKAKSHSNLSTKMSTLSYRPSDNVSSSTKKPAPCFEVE

UniProt P50052, sequence (P50052 whole entry): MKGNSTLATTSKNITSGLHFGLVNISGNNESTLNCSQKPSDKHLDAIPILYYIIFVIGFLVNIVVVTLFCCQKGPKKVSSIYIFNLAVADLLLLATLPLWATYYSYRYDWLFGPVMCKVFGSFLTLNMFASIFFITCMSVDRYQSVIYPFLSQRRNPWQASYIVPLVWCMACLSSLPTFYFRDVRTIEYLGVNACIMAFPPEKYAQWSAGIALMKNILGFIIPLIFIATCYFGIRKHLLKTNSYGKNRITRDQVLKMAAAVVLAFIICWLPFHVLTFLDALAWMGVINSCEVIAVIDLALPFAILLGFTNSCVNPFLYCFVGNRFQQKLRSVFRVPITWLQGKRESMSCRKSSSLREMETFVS

pKi (ATR2 (Homo sapiens)): 9.52 | pKi (ATR1 (Homo sapiens)): 9.70
Substance: Angiotensin II (from UniProt P01019)
